Our source for the binding result and No. of colonies values is patent publication US20130064790A1 (PROYECTO DE BIOMEDICINA CIMA S L, published 2013).

B1: peptide P9 (2-14) (SEQ ID NO: 48) (peptide)
peptide: HRCFHFRRHPVAV
notes: Amino acids 2-14 of P9
B2: peptide P9 (14 Ala) (SEQ ID NO: 52) (peptide)
peptide: CHRCFHFRRHPVAAF
notes: P9 with Val 14 replaced by Ala
B3: peptide P9 (15 Ala) (SEQ ID NO: 51) (peptide)
peptide: CHRCFHFRRHPVAVA
notes: P9 with Phe 15 replaced by Ala
B4: peptide P9 (2-13) (SEQ ID NO: 49) (peptide)
peptide: HRCFHFRRHPVA
notes: Amino acids 2-13 of P9
B5: peptide P9 (3-14) (SEQ ID NO: 50) (peptide)
peptide: RCFHFRRHPVAV
notes: Amino acids 3-14 of P9
B6: peptide P9 (2-15) (SEQ ID NO: 45) (peptide)
peptide: HRCFHFRRHPVAVF
notes: Amino acids 2-15 of P9
B7: peptide P9 (1-13) (SEQ ID NO: 47) (peptide)
peptide: CHRCFHFRRHPVA
notes: Amino acids 1-13 of P9
B8: peptide P9 (1-13; 1 Ser) (SEQ ID NO: 53) (peptide)
peptide: SHRCFHFRRHPVA
notes: Amino acids 1-13 of P9 with Cys 1 replaced by Ser
B9: peptide P9 (1-14) (SEQ ID NO: 46) (peptide)
peptide: CHRCFHFRRHPVAV
notes: Amino acids 1-14 of P9
B10: peptide P1 (SEQ ID NO: 1) (peptide)
peptide: RKLRPHWLHFHPVAV
B11: peptide P2 (SEQ ID NO: 2) (peptide)
peptide: ARWMHRHHGWSDRHR

T1 sequence (P22301 19-178 limits assumed): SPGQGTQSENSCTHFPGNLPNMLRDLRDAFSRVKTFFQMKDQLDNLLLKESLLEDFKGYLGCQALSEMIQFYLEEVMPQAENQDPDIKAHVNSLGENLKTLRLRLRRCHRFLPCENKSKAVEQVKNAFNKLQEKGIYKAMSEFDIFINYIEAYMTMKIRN

The first experiment addresses T1, human IL-10 (hIL-10) (human, UniProt P22301 19-178).
T1 construct: also called human recombinant protein IL-10 (R & D Systems, cat No. 217-IL/CF); hIL-10 (e-Bioscience)
The experiment can be described thus: SPR (BIAcore X), human IL-10 immobilized on CM5 chip, peptide 10 µM injected. The procedure:
To perform this assay, the Biosensor BIAcore X (BIAcore, AB, Uppsala, Sweden) was used. Briefly, human recombinant protein IL-10 (R & D Systems, cat No. 217-IL/CF) was covalently immobilized on the surface of flow cell 2 (FC2) of a CM5 chip (BIAcore), as described in De Crescenzo et al. 2001 (JBC, Vol 276; 29632-29643). Flow cell 1 (FC1), on the surface of which IL-10 is not immobilized, was used as a reference flow cell. The peptide solutions (10 μM) were injected at least twice in 10 mM Hepes buffer, pH 7.4, 150 mM NaCl, 0.005% Tween 20 (Polyoxyethylene Sorbitan Monolaurate) at a flow of 30 μl/min. The binding curves were processed by means of subtracting the response in FC1 from that obtained in FC2. The response in equilibrium was compared between the test peptide and an irrelevant control peptide of the same length. The control peptide used was peptide P301 (SEQ ID NO: 54) (derived from the HIV-1 coat, gp120 (301-315): […]). Each response was multiplied by a mass correction factor: MW(PX)/MW(P), where MW(PX) is the molecular weight of the test peptide P and MW(P) is the molecular weight of the control peptide (P301).
Background: SPR reads the build-up and loss of mass on a sensor chip optically.
For B1, the binding result is reported as “binds”.
On the same count and under the same terms, the value for B2 was “binds”.
On the same count and under the same terms, the entry for B3 is “binds”; for B4 it is “binds”; for B5 it is “binds”.
As to B6, the binding result is listed as “binds”.
Same read-out and setting: the value for B7 was “binds”; that for B8 was “binds”; that for B9 was “binds”.

The target in another experiment is biotinylated IL-10 (Homo sapiens (Human)) (UniProt P22301). The experiment can be described thus: phage display biopanning, 3 rounds on biotinylated IL-10 on streptavidin plates; clones sequenced.
biotinylated IL-10 (Homo sapiens (Human)), sequence (P22301 19-178 limits assumed, form in doubt): as the sequence (P22301 19-178 limits assumed) above
Molecule B10 came in with a No. of colonies of 25 colonies.
Molecule B11 registered a No. of colonies of 29 colonies.
